Assay results taken from paper PMC5610943 (Journal of molecular biology, 2017).

Biological target: recombinant M. smegmatis RNAP β′ subunit (N-terminal 6xHistidine) (M. smegmatis, UniProt A0QS66 1-1317)
Experiment: co-IP

binding result: binds
B1: purified recombinant MsmTopoI (enzyme, M. smegmatis, UniProt A0R5D9 1-936, looked up)
chain: MAGGDRGSGGTGNVRRLVIVESPTKARKIAGYLGSNYVVESSRGHIRDLPRNAADVPAKFKSEPWARLGVNVDQNFEPLYIVSPEKKSTVTELKGLLKDVDELYLATDGDREGEAIAWHLLETLKPRVPVKRMVFHEITEPAIRNAAENPRDLDIALVDAQETRRILDRLYGYEVSPVLWKKVAPKLSAGRVQSVATRIIVQRERERMAFHSASYWDVTAELDASVSDPSASPPKFTAKLNTVDGRRVATGRDFDSLGQLKRPDEVLVLDEASAGALASGLRGAQLAVTSVEQKPYTRRPYAPFMTSTLQQEAARKLRFSSERTMSIAQRLYENGYITYMRTDSTTLSESAINAARTQARQLYGEEYVHPSPRQYTRKVKNAQEAHEAIRPAGDVFQTPGQLHSALDTDEFRLYELIWQRTVASQMADARGTTLSLRIGGSASSGEQVVFNASGRTITFPGFLKAYVESIDELAGGESDDAESRLPNLTQGQRVDAADLSADGHQTSPPARYTEASLIKALEELGIGRPSTYSSIIKTIQDRGYVQKKGSALVPSWVAFAVVGLLEQHFGRLVDYDFTAAMEDELDEIANGQEQRTNWLNNFYFGGEHGVEGSIARAGGLKQLVGGNLEGIDAREVNSIKVFDDSEGRPVYVRVGRNGPYLERMVDDPDNPGEQKPQRANLKEDLTPDELTPELAEKLFATPQEGRSLGIDPETGHEIVAKDGRFGPYVTEVLPEPEDGGDDGTAGTPAKKGKKPTGPKPRTGSLFRSMDLETVTLEDALKLLSLPRVVGVDPTTNEEITAQNGRYGPYLKRGTDSRSLATEDQIFTITLDEALKIYAEPKRRGRQAASAPPLRELGNDPVSGKPMVIKDGRFGPYVTDGETNASLRKGDDVLTITDERASELLADRRARGPVKKKAPAKKAAKKAPAKKAAAKKA
